# Measurements taken from patent publication US20250346668A1 (GENOR BIOPHARMA, published 2025).
# Changes are numbered by the printed parent chain.
# B1: hAb008-26 (antibody, V domains shown)
# VH: QVQLVQSGAEVKKPGASVKVSCKASGYTFTDYTVNWVRQAPGQRLEWIGYINPFNSYTKYNQKFKDRATITADTSASTAYMELSSLRSEDTAVYFCANSVSTYWGQGTTVTVSS
# VL: DVVMTQSPLSLPVTLGQPASISCKSSQSLLDSDGKTYLNWLQQRPGQSPRRLIQLVSKLNSGVPDRFSGSGSGTDFTLKISRVEAEDVGVFYCWQGTHFPRTFGGGTKLEIK
# notes: Humanized; constant regions not specified
# B2: mAb007 (antibody, V domains shown)
# VH: QVQLQQSGPELVKPGASVKISCKASGSTFTDNYIHWVKQRPGQGLEWIGWIYPGSVNIKYNEKFKDKATLTADTSSTTAYMQLSSLSSEDSAIYYCARDISRYYFDYWGQGTTLTVSS
# VL: DIVMSQSPSSLAVSAGERVTMNCKSSQSLLNSRTRKNYLAWYQQKPGQSPKLLIYWASTRESGVPDRFTGSGSGTDFTLTISSVQAEDLAVYYCKQSFILRTFGGGTKLAIK
# notes: Mouse hybridoma antibody; The variable regions are printed as CAb007 VH/VL
# B3: mAb001 (antibody, V domains shown)
# VH: QVQLQQSGPELVKPGASVKISCKASGYSFTNYYMHWVKQRPGQGLEWIGWTYPGNNNIKYNEKFKGKATLTADTSSSTAYMQLSSLTSEDSAVYYCARDGYGYYFFDYWGQGIILTVSS
# VL: B2 VL with R18K, N22S, S32N, V91I, F98Y, I99T
# notes: Mouse hybridoma antibody; The variable regions are printed as CAb001 VH/VL
# B4: mAb008 (antibody, V domains shown)
# VH: QVQLQQSGAELARPGASVKMSCKTSGYTFTDYTVNWVKQRPGQGLEWIGYINPFNSYTKYNQKFKDKATLTADKSSSTAYMQLSSLTSEDSAVYFCANSVSTYWGQGTTLTVSS
# VL: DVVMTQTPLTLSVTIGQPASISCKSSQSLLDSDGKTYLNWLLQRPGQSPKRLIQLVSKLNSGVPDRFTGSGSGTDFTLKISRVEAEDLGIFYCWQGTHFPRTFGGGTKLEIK
# notes: Mouse hybridoma antibody
# B5: mAb009 (antibody, V domains shown)
# VH: B4 VH with A12T, T24A, V34I, N35H, N55S, S56D, M81I, S84N, F95Y, T102I
# VL: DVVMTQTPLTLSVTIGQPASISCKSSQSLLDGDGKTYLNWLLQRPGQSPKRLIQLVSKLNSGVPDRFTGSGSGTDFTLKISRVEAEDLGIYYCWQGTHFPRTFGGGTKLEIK
# notes: Mouse hybridoma antibody
# B6: CAb007 (antibody, V domains shown)
# VH: B2 VH
# VL: B2 VL
# notes: Chimeric: mouse variable regions linked to human light and heavy constant regions; constant regions not specified
# B7: hAb001-21 (antibody, V domains shown)
# VH: QVQLVQSGAEVKKPGASVKVSCKASGYSFTNYYMHWVRQAPGQRLEWIGWTYPGNNNIKYNEKFKGRVTITADTSASTAYMELSSLRSEDTAVYYCARDGYGYYFFDYWGQGTLVTVSS
# VL: DIVMTQSPDSLAVSLGERATINCKSSQSLLNNRTRKNYLAWYQQKPGQPPKLLIYWASTRESGVPDRFSGSGSGTDFTLTISSLQAEDVAVYYCKQSYTLRTFGGGTKLEIK
# notes: as for B1
# B8: hAb001-22 (antibody, V domains shown)
# VH: B7 VH
# VL: B7 VL with S69T
# notes: as for B1
# B9: hAb001-26 (antibody, V domains shown)
# VH: B7 VH with V68A
# VL: B7 VL with S69T
# notes: as for B1
# B10: hAb001-28 (antibody, V domains shown)
# VH: B7 VH with V68A
# VL: B7 VL with I21M, N22S, S69T
# notes: as for B1
# B11: hAb001-23 (antibody, V domains shown)
# VH: B7 VH
# VL: B7 VL with I21M, N22S
# notes: as for B1
# B12: hAb001-27 (antibody, V domains shown)
# VH: B7 VH with V68A
# VL: B7 VL with I21M, N22S
# notes: as for B1
# B13: CAb001 (antibody, V domains shown)
# VH: B3 VH
# VL: B2 VL with R18K, N22S, S32N, V91I, F98Y, I99T
# notes: as for B6
# Target: T1, CD3 on Jurkat cells (human)
# T1 construct: native, on the surface of Jurkat cells; The sheets print only 'Jurkat'; also called human CD3; TCR/CD3 complex on the human T cell line Jurkat
# Experiment: FACS on Jurkat cells, Alexa 488 secondary antibody, MFI [c]
# Method: (§1) Jurkat cells were amplificatorily cultured to 3×10⁶/ml in a T-175 cell culture flask, the culture medium was removed by centrifugation, and the cells were washed twice with PBS buffer (purchased from Invitrogen). After cell counting, the cells were diluted to 2×10⁶ cells/ml with PBS buffer, added with 1% BSA blocking solution, where the percentage was a mass percentage, incubated on ice for 30 minutes, and then washed twice with PBS buffer by centrifugation. The collected cells were suspended to 2×10⁶ cells/mL with FACS buffer (PBS+1% BSA, where the percentage was a mass percentage), and added to a 96-well FACS reaction plate at 100 μl per well, and samples of the purified CD3 antibodies obtained in Example 4 to be tested were added at 100 μl per well, and incubated at 4° C. for 2 hours. The plate was washed twice with FACS buffer by centrifugation, added with 100 μl per well of fluorescent (Alexa 488) labeled secondary antibody (purchased from Jackson), and incubated at 4° C. for 1 hour. After washing 3 times by centrifugation with FACS buffer, the cells were suspended with 100 μl of FACS buffer, and detected and analyzed using BD FACS LSRFortessa (purchased from BD). The results are shown in FIG. 5, where the IgG control is human IgG1 (hIgG).
row,EC50 (read off the curve) [pM],Binder
1,~2000,B1

# Target: T2, Cynomolgus monkey CD3e/g protein (cynomolgus monkey)
# T2 construct: also called cyno CD3e/g; cCD3e/g
# Experiment: ELISA, coated cyno CD3e/g
# Method: (§2) Human CD3e/g protein, cynomolgus monkey CD3e/g protein (sequences shown in Table 1) or human CD3e/d protein was diluted with PBS to a final concentration of 5.0 μg/mL, and then added with 100 μl per well to a 96-well ELISA plate. The plate was sealed with plastic film and incubated overnight at 4° C. The plate was washed twice with plate washing solution [PBS+0.01% (v/v) Tween 20] on the next day, and was added with blocking solution [PBS+0.01% (v/v) Tween 20+1% (w/w) BSA] to block at room temperature for 2 hours. The blocking solution was poured off, and 100 μl per well of the purified CD3e/g antibody obtained in Example 2 was added. After incubation at 37° C. for 2 hours, the plate was washed 3 times with plate washing solution [PBS+0.01% (v/v) Tween20]. After adding HRP (horseradish peroxidase) labeled secondary antibody (purchased from Sigma), the plate was incubated at 37° C. for 2 hours, washed 3 times with plate washing solution [PBS+0.01% (v/v) Tween 20]. After adding 100 μl per well of TMB substrate and incubating at room temperature for 30 minutes, 100 μl per well of stop solution (1.0N HCl) was added. […] FIG. 2 and Table 3 show the binding activities of CD3e/g antibodies to hCD3e/g as detected by ELISA, and FIG. 3 and Table 4 show the binding activities of CD3e/g antibodies to cyno CD3e/g as detected by ELISA, wherein the IgG control is mouse IgG, and the data in the tables are OD_{450 nm} values. Among them, HIT3a was purchased from BD pharmigen with a catalog number 555336; SP34 was purchased from BD pharmigen with a catalog number 551916. OKT3 was purchased from Biolegend.
EC50 [pM],OD450 nm at 0.000853 nM [OD450 nm],OD450 nm at 0.0043 nM [OD450 nm],OD450 nm at 0.02 nM [OD450 nm],OD450 nm at 0.11 nM [OD450 nm],OD450 nm at 0.53 nM [OD450 nm],OD450 nm at 2.67 nM [OD450 nm],OD450 nm at 13.3 nM [OD450 nm],OD450 nm at 66.7 nM [OD450 nm],Binder
260,0.0902,0.128,0.22,0.73,2.7,3.45,3.47,3.49,B2
330,0.164,0.152,0.17,0.64,2.43,3.45,3.5,3.49,B3
440,0.0893,0.111,0.16,0.48,2.03,3.32,3.48,3.42,B4
320,0.0755,0.126,0.19,0.63,2.44,3.41,3.54,3.46,B5

# Target: T1, CD3 on Jurkat cells
# Experiment: FACS on Jurkat cells, Alexa 488 secondary antibody, MFI [b]
# Method: as §1
row,EC50 (read off the curve) [pM],Binder
1,~100,B6

# Target: T3, human CD3e/g antigen (ACRO, catalog number CDG-H52W5) (human, UniProt P07766 23-126; P09693 23-116)
# T3 construct: Bought reagent used as the Biacore analyte; also called hCD3e/g
# Experiment: SPR (Biacore 8K), antibody captured via anti-human Fc
# Method: The equilibrium dissociation constant of binding of CD3 antibodies to human CD3e/g antigen (purchased from ACRO, catalog number CDG-H52W5) was determined by kinetic binding method using Biacore 8K (GE) system. Through the capture method, the carboxylated dextran surface of CM5 chip was first activated with NHS (N-hydroxysuccinimide) and EDC (1-(3-dimethylaminopropyl)-3-ethylcarbodiimide hydrochloride), and then added with an anti-human IgG (Fc) antibody, the free amino group of which could form an amide bond with the activated carboxyl group, thereby being fixed on the chip surface. The anti-human IgG (Fc) antibody could bind to the Fc end of CD3 antibodies to capture the antibodies, and then a series of concentrations of antigen were added to obtain the binding and dissociation curves of antibody and antigen, and the corresponding kinetic constants were calculated by Biacore Evaluation software, as shown in the table below.
Kd [pM],koff [s⁻¹],kon [M⁻¹ s⁻¹],Binder
16800,0.00669,398000,B7
20400,0.00848,416000,B8
17400,0.00673,386000,B9
20400,0.00745,365000,B10
17400,0.00696,401000,B11
21000,0.00823,391000,B12
12100,0.00532,438000,B6
23100,0.00616,267000,B13
18100,0.00482,266000,B1

# Target: T1, CD3 on Jurkat cells
# Experiment: FACS on Jurkat cells, Alexa 488 secondary antibody, MFI [a]
# Method: as §1
row,EC50 (read off the curve) [pM],Binder
1,~300,B7
2,~300,B8
3,~300,B9
4,~300,B10
5,~300,B11
6,~300,B12
7,~300,B13

# Target: T4, human CD3e/d protein (Sinobiological, CAT: CT038-H2508H-B) (human, UniProt P07766 23-126; P04234 22-105)
# T4 construct: Bought reagent; also called hCD3e/d
# Experiment: ELISA, coated hCD3e/d
# Method: as §2
EC50 [pM],Emax (OD),OD450 nm at 0.00128 nM [OD450 nm],OD450 nm at 0.0064 nM [OD450 nm],OD450 nm at 0.032 nM [OD450 nm],OD450 nm at 0.16 nM [OD450 nm],OD450 nm at 0.8 nM [OD450 nm],OD450 nm at 4 nM [OD450 nm],OD450 nm at 20 nM [OD450 nm],OD450 nm at 100 nM [OD450 nm],Binder
17,3.04,0.26,0.71,2.02,2.86,2.96,2.99,3.01,3.04,B2
22,3.05,0.27,0.72,1.83,2.72,2.96,2.99,3.05,3.02,B3
41,3.05,0.16,0.53,1.31,2.48,2.88,2.96,3,3.05,B4
27,3.03,0.24,0.66,1.67,2.64,2.85,2.97,3.02,3.03,B5
